Results: article PMC7793260, “MreC and MreD balance the interaction between the elongasome proteins PBP2 and RodA” (PLoS Genetics, 2020)
Numbering of substitutions follows the chain as printed.

Legend:
mKO-PBP2^S330C = target: T1, mKO-PBP2^S330C (E. coli, UniProt P0AD65 1-633, S330C); test: FRET or BRET; as the two-plasmid FRET, cells treated with mecillinam (2 mg/L) for two mass doublings; conditions: partners not purified
T1 construct: made from pWA004 by mutagenesis PCR; source: E. coli LMC500, expressed from plasmid (15 uM IPTG), in fixed cells; not shown: mKO, N-terminal, kept
T1 sequence (looked up): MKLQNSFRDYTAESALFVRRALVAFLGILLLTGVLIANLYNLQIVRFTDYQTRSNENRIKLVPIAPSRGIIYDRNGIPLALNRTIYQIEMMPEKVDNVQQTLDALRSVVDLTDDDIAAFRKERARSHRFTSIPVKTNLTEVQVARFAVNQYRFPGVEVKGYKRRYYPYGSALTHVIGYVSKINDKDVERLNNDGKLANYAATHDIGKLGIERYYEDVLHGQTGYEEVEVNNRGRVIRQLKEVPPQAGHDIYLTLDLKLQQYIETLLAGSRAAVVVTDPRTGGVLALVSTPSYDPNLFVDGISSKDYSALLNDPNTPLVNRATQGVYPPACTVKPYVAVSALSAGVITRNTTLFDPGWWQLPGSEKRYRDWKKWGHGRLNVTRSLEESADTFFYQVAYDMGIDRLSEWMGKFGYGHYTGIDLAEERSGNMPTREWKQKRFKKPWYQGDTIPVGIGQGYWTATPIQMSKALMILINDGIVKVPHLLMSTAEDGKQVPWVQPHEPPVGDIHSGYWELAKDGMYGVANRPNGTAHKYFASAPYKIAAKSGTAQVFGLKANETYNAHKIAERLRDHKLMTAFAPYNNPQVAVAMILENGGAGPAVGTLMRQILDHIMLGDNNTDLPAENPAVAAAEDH

[1] = target: T2, PBP2 (wild type), fused to mKO or to mCherry (E. coli, UniProt P0AD65 1-633); test: FRET or BRET; two-plasmid spectral FRET in E. coli LMC500 cells; mCherry fusion as acceptor, mKO fusion as donor; Gb4 medium, steady state at 28 C, 15 uM IPTG for two mass doublings, FAGA-fixed; acceptor FRET efficiency (EfA) by spectral unmixing; conditions: partners not purified
T2 construct: PBP2, peptidoglycan transpeptidase of the E. coli elongasome, wild type; mKO-PBP2 in all others; also called mKO-PBP2^WT; mKO-PBP2; source: E. coli LMC500, expressed from plasmid (15 uM IPTG), in fixed cells; not shown: mKO (donor construct, pWA004) or mCherry (acceptor construct), N-terminal, kept
T2 sequence (looked up): T1 sequence (looked up) with C330S

mKO-^MalF37PBP2 = target: T3, mKO-^MalF37PBP2 (E. coli, UniProt P02916 1-37; P0AD65 46-633); test: as above; conditions: partners not purified
T3 construct: MalF of E. coli, the first 37 residues (cytoplasmic N-terminus and transmembrane helix), amplified from the MG1655 genome; PBP2 of E. coli excluding the first 45 residues (NT and TMH removed, periplasmic domain kept); also called PBP2 with the NT and TMH of MalF; source: E. coli LMC500, expressed from plasmid (15 uM IPTG), in fixed cells; not shown: mKO, N-terminal, kept
T3 chain (looked up): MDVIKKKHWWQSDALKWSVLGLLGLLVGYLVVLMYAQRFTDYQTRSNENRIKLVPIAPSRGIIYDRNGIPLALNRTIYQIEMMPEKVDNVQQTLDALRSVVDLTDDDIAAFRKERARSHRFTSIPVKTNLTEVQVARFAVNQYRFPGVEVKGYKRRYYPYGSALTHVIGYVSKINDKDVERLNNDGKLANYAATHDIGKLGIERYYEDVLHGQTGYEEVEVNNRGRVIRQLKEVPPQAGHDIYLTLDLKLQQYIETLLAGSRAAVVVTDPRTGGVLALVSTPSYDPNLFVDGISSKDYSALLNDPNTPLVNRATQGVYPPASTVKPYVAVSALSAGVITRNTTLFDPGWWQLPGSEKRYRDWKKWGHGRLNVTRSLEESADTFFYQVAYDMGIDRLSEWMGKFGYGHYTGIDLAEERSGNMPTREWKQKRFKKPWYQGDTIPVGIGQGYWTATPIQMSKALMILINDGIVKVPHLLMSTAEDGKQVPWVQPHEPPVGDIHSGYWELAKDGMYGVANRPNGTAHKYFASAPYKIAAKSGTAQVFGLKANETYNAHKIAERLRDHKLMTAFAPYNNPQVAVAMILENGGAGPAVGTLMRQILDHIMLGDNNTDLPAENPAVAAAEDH

[2] = target: the molecule itself; test: as above

EfA (acceptor FRET efficiency) (mKO-PBP2^S330C): 6.6%
EfA (acceptor FRET efficiency) [1]: 12.7%
EfA (acceptor FRET efficiency) (mKO-^MalF37PBP2): 8.2%
B1: RodA (wild type), fused to mCherry or to mKO (enzyme, E. coli, UniProt P0ABG7 1-370, looked up)
chain: MTDNPNKKTFWDKVHLDPTMLLILLALLVYSALVIWSASGQDIGMMERKIGQIAMGLVIMVVMAQIPPRVYEGWAPYLYIICIILLVAVDAFGAISKGAQRWLDLGIVRFQPSEIAKIAVPLMVARFINRDVCPPSLKNTGIALVLIFMPTLLVAAQPDLGTSILVALSGLFVLFLSGLSWRLIGVAVVLVAAFIPILWFFLMHDYQRQRVMMLLDPESDPLGAGYHIIQSKIAIGSGGLRGKGWLHGTQSQLEFLPERHTDFIFAVLAEELGLVGILILLALYILLIMRGLWIAARAQTTFGRVMAGGLMLILFVYVFVNIGMVSGILPVVGVPLPLVSYGGSALIVLMAGFGIVMSIHTHRKMLSKSV
notes: RodA, peptidoglycan glycosyltransferase of the E. coli elongasome; wild-type rodA gene; mCh-RodA in all others; also called mCh-RodA; mKO-RodA; source: E. coli LMC500, expressed from plasmid (15 uM IPTG), in fixed cells; not shown: mCherry (acceptor construct, pSAV047-RodA) or mKO (donor construct, pXL56), N-terminal, kept
EfA (acceptor FRET efficiency) [2]: 5.5%
